# Assay results as given in IntAct's records for PubMed 29039417.
# B1: BBSome complex member BBS2 (Homo sapiens), Q9BXC9 (parent)
# chain: MLLPVFTLKLRHKISPRMVAIGRYDGTHPCLAAATQTGKVFIHNPHTRNQHVSASRVFQSPLESDVSLLSINQAVSCLTAGVLNPELGYDALLVGTQTNLLAYDVYNNSDLFYREVADGANAIVLGTLGDISSPLAIIGGNCALQGFNHEGSDLFWTVTGDNVNSLALCDFDGDGKKELLVGSEDFDIRVFKEDEIVAEMTETEIVTSLCPMYGSRFGYALSNGTVGVYDKTSRYWRIKSKNHAMSIHAFDLNSDGVNELITGWSNGKVDARSDRTGEVIFKDNFSSAIAGVVEGDYRMDGHIQLICCSVDGEIRGYLPGTAEMRGNLMDTSAEQDLIRELSQKKQNLLLELRNYEENAKAELASPLNEADGHRGIIPANTRLHTTLSVSLGNETQTAHTELRISTSNDTIIRAVLIFAEGIFTGESHVVHPSIHNLSSSICIPIVPPKDVPVDLHLKAFVGYRSSTQFHVFESTRQLPRFSMYALTSLDPASEPISYVNFTIAERAQRVVVWLGQNFLLPEDTHIQNAPFQVCFTSLRNGGHLHIKIKLSGEITINTDDIDLAGDIIQSMASFFAIEDLQVEADFPVYFEELRKVLVKVDEYHSVHQKLSADMADHSNLIRSLLVGAEDARLMRDMKTMKSRYMELYDLNRDLLNGYKIRCNNHTELLGNLKAVNQAIQRAGRLRVGKPKNQVITACRDAIRSNNINTLFKIMRVGTASS
# partner: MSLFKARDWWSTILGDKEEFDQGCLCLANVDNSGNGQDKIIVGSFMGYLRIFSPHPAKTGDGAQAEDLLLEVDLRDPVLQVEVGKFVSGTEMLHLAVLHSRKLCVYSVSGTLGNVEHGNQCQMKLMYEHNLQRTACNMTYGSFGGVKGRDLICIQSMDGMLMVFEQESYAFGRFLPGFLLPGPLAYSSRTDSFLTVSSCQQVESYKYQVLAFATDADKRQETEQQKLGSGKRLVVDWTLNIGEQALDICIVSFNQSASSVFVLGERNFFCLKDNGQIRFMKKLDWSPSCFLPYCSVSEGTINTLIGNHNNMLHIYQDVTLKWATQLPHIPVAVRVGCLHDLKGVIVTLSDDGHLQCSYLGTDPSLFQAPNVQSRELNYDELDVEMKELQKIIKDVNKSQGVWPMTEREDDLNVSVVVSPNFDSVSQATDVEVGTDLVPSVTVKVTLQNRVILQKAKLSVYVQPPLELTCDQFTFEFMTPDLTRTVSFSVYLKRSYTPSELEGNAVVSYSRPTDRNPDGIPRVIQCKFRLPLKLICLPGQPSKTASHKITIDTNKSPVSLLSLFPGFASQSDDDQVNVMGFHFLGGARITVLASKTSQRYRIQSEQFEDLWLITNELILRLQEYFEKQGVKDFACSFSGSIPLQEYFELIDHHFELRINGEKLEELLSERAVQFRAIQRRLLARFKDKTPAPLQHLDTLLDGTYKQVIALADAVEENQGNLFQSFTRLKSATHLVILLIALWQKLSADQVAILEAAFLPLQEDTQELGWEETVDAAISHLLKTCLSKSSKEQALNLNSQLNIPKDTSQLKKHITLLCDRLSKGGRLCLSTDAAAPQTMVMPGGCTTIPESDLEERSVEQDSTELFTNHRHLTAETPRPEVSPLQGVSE
# Variants of: B1
# Conditions: with pthb1_human BBS9, Q3SYG4
row,effect of a mutation on the interaction,Variant
1,disrupting interaction strength,L437K
2,with no effect,L437E
3,with no effect,L437A
4,with no effect,T410A
5,with no effect,T410K
6,with no effect,T410E
7,with no effect,S440E
8,with no effect,S440K
9,with no effect,S440A
10,with no effect,N436E
11,with no effect,N436A
12,with no effect,N436K
13,with no effect,A398K
14,with no effect,A398E
15,disrupting interaction strength,A398V
16,with no effect,S407E
17,with no effect,S407K
18,with no effect,S407A
19,disrupting interaction strength,S407F
20,with no effect,F423E
21,with no effect,F423K
22,with no effect,F423A
23,disrupting interaction strength,L402K
24,disrupting interaction strength,L402C
25,with no effect,L402A

row,effect of a mutation on the interaction,Variant
1,disrupting interaction strength,L402E
2,with no effect,A419E
3,with no effect,A419K
4,with no effect,R403K
5,with no effect,R403E
6,with no effect,R403A
7,with no effect,Q396A
8,with no effect,Q396E
9,with no effect,Q396K
10,with no effect,E426K
11,with no effect,E426A
12,with no effect,H428K
13,with no effect,H428A
14,with no effect,H428E
15,with no effect,P444A
16,with no effect,P444K
17,with no effect,P444E
18,with no effect,A414E
19,with no effect,A414K
20,disrupting interaction strength,A414V
21,with no effect,G425A
22,with no effect,G425E
23,with no effect,G425K
24,with no effect,P447E
25,with no effect,P447A

row,effect of a mutation on the interaction,Variant
1,with no effect,P447K
2,with no effect,I434K
3,with no effect,I434E
4,with no effect,I434A
5,with no effect,G421K
6,with no effect,G421E
7,with no effect,G421A
8,with no effect,H435A
9,with no effect,H435K
10,with no effect,H435E
11,disrupting interaction strength,R413K
12,with no effect,R413A
13,with no effect,R413E
14,with no effect,P432A
15,disrupting interaction strength,P432L
16,with no effect,P432K
17,with no effect,P432E
18,with no effect,I422E
19,with no effect,I422K
20,with no effect,I422A
21,with no effect,V415A
22,with no effect,V415K
23,with no effect,V415E
24,with no effect,E420A
25,with no effect,E420K

row,effect of a mutation on the interaction,Variant
1,with no effect,N393K
2,with no effect,N393E
3,with no effect,K449E
4,with no effect,K449A
5,disrupting interaction strength,I412R
6,with no effect,I412A
7,with no effect,I412E
8,with no effect,I412K
9,with no effect,I404A
10,with no effect,I404K
11,with no effect,I404E
12,with no effect,P448A
13,with no effect,P448E
14,with no effect,P448K
15,with no effect,H399E
16,with no effect,H399A
17,with no effect,H399K
18,disrupting interaction strength,S439A
19,with no effect,S439K
20,disrupting interaction strength,S439E
21,disrupting interaction strength,S439N
22,disrupting interaction strength,H431R
23,with no effect,H431K
24,with no effect,H431A
25,with no effect,H431E

row,effect of a mutation on the interaction,Variant
1,with no effect,S405K
2,with no effect,S405A
3,disrupting interaction strength,S405P
4,with no effect,S405E
5,with no effect,V429A
6,with no effect,V429E
7,with no effect,V429K
8,with no effect,S438E
9,with no effect,S438K
10,with no effect,S438A
11,disrupting interaction strength,S438F
12,disrupting interaction strength,I445Q
13,disrupting interaction strength,I445E
14,disrupting interaction strength,I445K
15,disrupting interaction strength,I445T
16,disrupting interaction strength,I445A
17,with no effect,I441E
18,with no effect,I441K
19,with no effect,I441A
20,with no effect,E401K
21,with no effect,E401A
22,with no effect,T406E
23,with no effect,T406A
24,with no effect,T406K
25,with no effect,T424E

row,effect of a mutation on the interaction,Variant
1,with no effect,T424A
2,with no effect,T424K
3,with no effect,T395E
4,with no effect,T395K
5,with no effect,T395A
6,with no effect,E394K
7,with no effect,E394A
8,with no effect,T397A
9,with no effect,T397E
10,with no effect,T397K
11,with no effect,I417A
12,with no effect,I417E
13,with no effect,I417K
14,with no effect,L416K
15,with no effect,L416A
16,with no effect,L416E
17,with no effect,S433E
18,with no effect,S433A
19,with no effect,S433K
20,disrupting interaction strength,I443A
21,disrupting interaction strength,I443E
22,disrupting interaction strength,I443K
23,disrupting interaction strength,V430A
24,with no effect,V430E
25,with no effect,V430K

row,effect of a mutation on the interaction,Variant
1,with no effect,I411E
2,with no effect,I411A
3,with no effect,I411K
4,with no effect,C442E
5,with no effect,C442K
6,with no effect,C442A
7,with no effect,T400E
8,with no effect,T400A
9,with no effect,T400K
10,with no effect,F418A
11,with no effect,F418K
12,with no effect,F418E
13,with no effect,V446E
14,with no effect,V446K
15,with no effect,V446A
16,with no effect,N408K
17,with no effect,N408E
18,disrupting interaction strength,N408A
19,with no effect,S427K
20,with no effect,S427E
21,with no effect,S427A
22,with no effect,D409K
23,with no effect,D409E
24,with no effect,D409A
